Results published in IntAct's records for PubMed 16477026.

B1: Effector protein HopAB2 (Pseudomonas syringae pv. tomato (strain DC3000)), Q8RSY1 (parent)
chain: MAGINRAGPSGAYFVGHTDPEPVSGQAHGSGSGASSSNSPQVQPRPSNTPPSNAPAPPPTGRERLSRSTALSRQTREWLEQGMPTAEDASVRRRPQVTADAATPRAEARRTPEATADASAPRRGAVAHANSIVQQLVSEGADISHTRNMLRNAMNGDAVAFSRVEQNIFRQHFPNMPMHGISRDSELAIELRGALRRAVHQQAASAPVRSPTPTPASPAASSSGSSQRSLFGRFARLMAPNQGRSSNTAASQTPVDRSPPRVNQRPIRVDRAAMRNRGNDEADAALRGLVQQGVNLEHLRTALERHVMQRLPIPLDIGSALQNVGINPSIDLGESLVQHPLLNLNVALNRMLGLRPSAERAPRPAVPVAPATASRRPDGTRATRLRVMPEREDYENNVAYGVRLLNLNPGVGVRQAVAAFVTDRAERPAVVANIRAALDPIASQFSQLRTISKADAESEELGFKDAADHHTDDVTHCLFGGELSLSNPDQQVIGLAGNPTDTSQPYSQEGNKDLAFMDMKKLAQFLAGKPEHPMTRETLNAENIAKYAFRIVP

Variants of: B1
Conditions: with rs27a_sollc UBI3, P62980

Row | Variant | effect of a mutation on the interaction
1 | K512R;K529R | decreasing interaction strength
